Reference: patent US20210009703A1 (TUSK THERAPEUTICS, published 2021)

How the values were obtained:
[1] = target: T1, human CD25 expressed on cells (human, UniProt P01589 22-272); experiment: flow cytometry on SU-DHL-1 cells, PE anti-human IgG Fc secondary
T1 construct: Endogenous CD25 on human cells; also called CD25 on human in vitro differentiated Treg cells, SU-DHL-1 cells, SR-786 cells and PBMC
T1 sequence: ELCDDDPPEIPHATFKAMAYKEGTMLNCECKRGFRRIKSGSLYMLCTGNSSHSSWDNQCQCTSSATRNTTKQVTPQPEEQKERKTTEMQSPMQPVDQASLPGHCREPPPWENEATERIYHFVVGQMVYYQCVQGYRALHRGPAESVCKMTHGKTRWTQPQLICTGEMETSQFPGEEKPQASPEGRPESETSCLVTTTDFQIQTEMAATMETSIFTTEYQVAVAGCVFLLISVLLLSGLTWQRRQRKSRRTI
Protocol: Cells were washed again and resuspended in FACS buffer containing DAPI and acquired on the Intellicyt iQue. Live cells were gated using FSC vs SSC parameters by flow cytometry during sample acquisition. Geo Mean Intensity of stained cells were plotted on an XY chart, graphing Geo Mean Intensity against the log of the concentration, and the data fit to a non-linear regression curve from which the EC50 is calculated.

[2] = target: T2, recombinant human CD25 his tagged (human, UniProt P01589 22-240); experiment: ForteBio BLI, avidity format: rhCD25-His on Ni-NTA sensors, IgG in solution; IgG in solution, avidity format
T2 construct: also called rhCD25-his; rhCD25; not shown: His tag
T2 sequence: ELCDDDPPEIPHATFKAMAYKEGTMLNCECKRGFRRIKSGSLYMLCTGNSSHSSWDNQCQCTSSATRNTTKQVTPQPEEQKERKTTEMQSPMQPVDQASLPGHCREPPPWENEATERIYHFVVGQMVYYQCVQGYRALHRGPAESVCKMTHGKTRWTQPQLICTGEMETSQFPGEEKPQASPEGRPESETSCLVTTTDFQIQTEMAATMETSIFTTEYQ

B1: aCD25-a-672 (antibody, V domains shown)
VH: QVQLVQSGAEVKKPGSSVKVSCKASGGTFSSYAISWVRQAPGQGLEWMGGIIPIFGTANYAQKFQGRVTITADESTSTAYMELSSLRSEDTAVYYCAREYDYKEDWGQGTLVTVSS
VL: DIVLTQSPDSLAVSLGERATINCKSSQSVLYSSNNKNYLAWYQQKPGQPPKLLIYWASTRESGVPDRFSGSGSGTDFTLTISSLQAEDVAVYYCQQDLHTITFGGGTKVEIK
notes: An afucosylated IgG1 form was also made
EC50 (read off the curve) [1]: ~0.2 µg/mL | Kd [2]: 1.2 nM
